Experimental data as given in patent US20150011567.

How the values were obtained:
[1] = tested on: purified human H3 recombinant protein (NEB)
[2] = tested on: purified human H2B recombinant protein (NEB)
[3] = tested on: purified human H2A recombinant protein (NEB)
[4] = target: purified human H4 recombinant protein (NEB) (UniProt P62805)
[5] = tested on: biotinylated H4-derived unphosphorylated peptide TVTAMDVVYALKRQGRT
[6] = tested on: biotinylated human histone H2B derived peptide KRSRKESYSVYVYKVL

Chain of recombinant GST-WEE1 protein (Invitrogen) (chain, as listed by the source): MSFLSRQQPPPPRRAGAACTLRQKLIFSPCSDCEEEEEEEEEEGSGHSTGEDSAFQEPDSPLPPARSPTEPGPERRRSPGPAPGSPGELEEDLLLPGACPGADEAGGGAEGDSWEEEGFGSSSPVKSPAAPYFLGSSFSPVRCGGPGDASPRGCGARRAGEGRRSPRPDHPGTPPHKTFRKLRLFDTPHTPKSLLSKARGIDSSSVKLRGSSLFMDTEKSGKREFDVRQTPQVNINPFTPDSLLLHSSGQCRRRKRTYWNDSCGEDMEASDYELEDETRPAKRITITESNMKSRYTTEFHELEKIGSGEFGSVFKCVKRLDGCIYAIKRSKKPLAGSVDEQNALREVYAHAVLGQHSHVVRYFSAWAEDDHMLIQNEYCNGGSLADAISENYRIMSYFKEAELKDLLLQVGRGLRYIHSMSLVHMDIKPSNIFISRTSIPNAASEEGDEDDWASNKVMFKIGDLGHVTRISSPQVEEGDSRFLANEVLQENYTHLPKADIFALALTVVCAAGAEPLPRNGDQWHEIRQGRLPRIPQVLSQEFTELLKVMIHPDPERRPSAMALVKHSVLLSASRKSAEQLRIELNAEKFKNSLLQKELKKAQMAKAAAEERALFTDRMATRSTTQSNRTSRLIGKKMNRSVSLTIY

| Substance | in vitro kinase assay, immunoblot with pTyr37-H2B antibody [1] | in vitro kinase assay, immunoblot with pTyr37-H2B antibody [2] | in vitro kinase assay, immunoblot with pTyr37-H2B antibody [3] | in vitro kinase assay, immunoblot with pTyr37-H2B antibody [4] | in vitro kinase assay on plate-bound peptide, ELISA with pY88-H4 antibodies [5] | Peptide Immunosandwich Assay (PIA), H2B Tyr37-phosphorylation read at 450 nm [6] |
| --- | --- | --- | --- | --- | --- | --- |
| recombinant GST-WEE1 protein (Invitrogen) | failed to phosphorylate other three core histones, H2A, H3 and H4 | When purified WEE1 and H2B were incubated, H2B was Tyr37-phosphorylated | failed to phosphorylate other three core histones, H2A, H3 and H4 | failed to phosphorylate other three core histones, H2A, H3 and H4 |  |  |
| purified WEE1 protein (Examples 5 and 7) |  |  |  |  | Incubation of H4 peptide with WEE1 and Ack1 protein resulted in robust H4 Tyr88-phosphorylation | Purified WEE1 exhibited robust H2B Tyr37-phosphorylation |
